Data published in publication PMC4858744, “Bifunctional CYP81AA proteins catalyse identical hydroxylations but alternative regioselective phenol couplings in plant xanthone biosynthesis” (Nature Communications, 2016).

Tested on: T1, NC(=O)C1=CN([C@@H]2O[C@H](COP(=O)(O)OP(=O)(O)OC[C@H]3O[C@@H](n4cnc5c(N)ncnc54)[C@H](OP(=O)(O)O)[C@@H]3O)[C@@H](O)[C@H]2O)C=CC1
T1 construct: full-length, 712 residues, pESC-URA MCS2, yeast (S. cerevisiae INVSc1) microsomes
Assay: cytochrome c reduction, yeast microsomes
Assay type: biochemical, Hypericum calycinum
Conditions: electron acceptor cytochrome c

Sequence of HcCPR2 (Hypericum calycinum) (chain, as listed by the source): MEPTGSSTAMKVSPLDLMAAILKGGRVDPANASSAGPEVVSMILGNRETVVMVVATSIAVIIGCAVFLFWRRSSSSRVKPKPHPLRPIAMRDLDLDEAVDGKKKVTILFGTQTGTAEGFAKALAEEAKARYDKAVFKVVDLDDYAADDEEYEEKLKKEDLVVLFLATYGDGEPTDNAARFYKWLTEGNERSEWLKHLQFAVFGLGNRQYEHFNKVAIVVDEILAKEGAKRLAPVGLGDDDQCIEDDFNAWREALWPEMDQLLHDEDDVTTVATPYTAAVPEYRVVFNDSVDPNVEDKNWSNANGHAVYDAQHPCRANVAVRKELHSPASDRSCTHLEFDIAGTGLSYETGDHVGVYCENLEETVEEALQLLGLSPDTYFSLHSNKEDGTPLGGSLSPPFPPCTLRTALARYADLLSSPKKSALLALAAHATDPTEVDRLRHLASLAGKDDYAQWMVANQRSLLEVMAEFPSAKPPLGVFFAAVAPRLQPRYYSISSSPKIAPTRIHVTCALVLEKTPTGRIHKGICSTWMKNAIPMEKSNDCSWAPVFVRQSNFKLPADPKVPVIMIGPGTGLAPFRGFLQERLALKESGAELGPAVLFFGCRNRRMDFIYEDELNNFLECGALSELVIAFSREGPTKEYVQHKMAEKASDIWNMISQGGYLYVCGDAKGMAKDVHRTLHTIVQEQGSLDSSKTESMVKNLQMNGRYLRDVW

Question: Which Km does the source give for HcCPR2 (Hypericum calycinum) here?
Answer: 43.9 ± 6.5 µM
